Conditions in all cases: both partners purified
Experiment [1] deals with T1, full-length rabbit cytochrome b5 (rabbit, UniProt P00169 1-134).
T1 construct: Uniformly 15N-labelled where it is the observed protein in NMR, unlabelled otherwise; Ferric in NMR; reduced with dithionite (ferrous) for stopped flow; also called cytb 5; cytb5; source: E. coli C41, pLW01 plasmid, purified
Kind of experiment: stopped-flow absorbance kinetics; cytb5 in DMPC/DHPC bicelles; 25 °C, anaerobic; pre-reduced cytb5 mixed with ferric cyt c, final 6 uM cytb5 and 6.6 uM cyt c; micro-rates from numerical fit of the scheme binding (k1, k2) then electron transfer (k3).

Experiment [2] has as its target T1, full-length rabbit cytochrome b5. Description: stopped-flow absorbance kinetics; lipid-free cytb5; 25 °C, anaerobic; pre-reduced cytb5 mixed with ferric cyt c, final 6 uM cytb5 and 6.6 uM cyt c; micro-rates from numerical fit of the scheme binding (k1, k2) then electron transfer (k3); k2 fixed to zero.
Experiment [3] shares this target. Kind of experiment: stopped-flow absorbance kinetics; cytb5 in nanodiscs; 25 °C, anaerobic; pre-reduced cytb5 mixed with ferric cyt c, final 6 uM cytb5 and 6.6 uM cyt c; micro-rates from numerical fit of the scheme binding (k1, k2) then electron transfer (k3).

T1 sequence (P00169 whole entry): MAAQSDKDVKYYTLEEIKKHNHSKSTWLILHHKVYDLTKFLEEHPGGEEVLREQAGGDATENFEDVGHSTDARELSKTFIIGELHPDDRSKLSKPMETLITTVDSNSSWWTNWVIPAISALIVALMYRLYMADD

B1: equine cytochrome c (natural protein)
chain: not shown
notes: Unlabelled in the titrations into 15N-cytb5, in SEC/DLS and in stopped flow (ferric); uniformly 15N-labelled where it is the observed protein in NMR; also called cyt c; horse cyt c; source: obtained through a collaborator, prepared and purified as described previously; 15N-labeled form expressed and purified as reported in the literature
What is called koff is the first-order rate constant of dissociation. Read a high koff as fast dissociation. As for B1, the figures for the koff in experiment [1], in experiment [2] and in experiment [3] were 46.2 ± 0.86 s⁻¹, around 0 s⁻¹ and 54.54 ± 0.35 s⁻¹, respectively.

Values taken from PMC5552742, “Kinetic and Structural Characterization of the Effects of Membrane on the Complex of Cytochrome b5 and Cytochrome c” (Scientific Reports, 2017).
